Source: article PMC13033339

Legend:
Assay in all cases: cryo-EM structure; genome-packed Douge virions purified from M. smegmatis lysate (PEG, CsCl gradient), vitrified at 4 °C; capsid, connector-vertex, tail tube, baseplate and central fiber reconstructed separately (2.18-4.26 Å) and joined in a composite map; the proteins stood in the assembled virion
[1] = target: baseplate hub protein (BHP), gp18 of mycobacteriophage Douge (mycobacteriophage Douge)
[2] = target: portal protein, gp5 of mycobacteriophage Douge (mycobacteriophage Douge)
[3] = target: distal tail protein (DTP), gp17 of mycobacteriophage Douge (mycobacteriophage Douge)
[4] = target: central fiber protein (CFP), gp20 of mycobacteriophage Douge (mycobacteriophage Douge)
[5] = target: tail tube protein (TTP), gp13 of mycobacteriophage Douge (mycobacteriophage Douge)
[6] = target: capsid cement protein (CCP), gp113 of mycobacteriophage Douge (mycobacteriophage Douge)
[7] = target: tape measure protein (TMP), gp16 of mycobacteriophage Douge (mycobacteriophage Douge)
[8] = target: stopper protein, gp10 of mycobacteriophage Douge (mycobacteriophage Douge)
[9] = target: terminator protein, gp12 of mycobacteriophage Douge (mycobacteriophage Douge)
[10] = target: adaptor protein, gp9 of mycobacteriophage Douge (mycobacteriophage Douge)

Substance: baseplate hub protein (BHP), gp18 of mycobacteriophage Douge (natural protein)
- stoichiometry N [1]: 3

Substance: portal protein, gp5 of mycobacteriophage Douge (natural protein)
- stoichiometry N [2]: 12

Substance: distal tail protein (DTP), gp17 of mycobacteriophage Douge (natural protein)
- stoichiometry N [3]: 6

Substance: central fiber protein (CFP), gp20 of mycobacteriophage Douge (natural protein)
- stoichiometry N [4]: 3

Substance: tail tube protein (TTP), gp13 of mycobacteriophage Douge (natural protein)
- stoichiometry N [5]: 6

Substance: capsid cement protein (CCP), gp113 of mycobacteriophage Douge (natural protein)
- stoichiometry N [6]: 2

Substance: tape measure protein (TMP), gp16 of mycobacteriophage Douge (natural protein)
- stoichiometry N [7]: 3

Substance: stopper protein, gp10 of mycobacteriophage Douge (natural protein)
- stoichiometry N [8]: 6

Substance: terminator protein, gp12 of mycobacteriophage Douge (natural protein)
- stoichiometry N [9]: 6

Substance: adaptor protein, gp9 of mycobacteriophage Douge (natural protein)
- stoichiometry N [10]: 12
